# Assay results from the DeepSol protein solubility set.
# Experiment: soluble on expression in E. coli; label from the status in PepcDB or PDB records
row,Sequence,soluble on expression in E. coli
1,MGSDKIHHHHHHMKWEEKRDMVKIATWYYHYGWTQAQIAKKIGISRSIISKTLQRAKDLGIVEIFIKDETYYTVDLEQKLEEKFGLEEAIVVATHDMSEEEALNFLAKEAAYTLSKRIAKVKTLGISWGKTIRKFANEFPFIPHKDLTIIPLIGGMGSSDIDLHSNQICYDLKKKMKCHSKYLYAPALVEDTEMKTDLSKNKYISEVLEEGKTVDMAIVGVSSPYNHSTMEEIGYINSEDIEELRYKDVVGDINSRFFTADGKEAKTEINTHVIGLSLEELKNIPTVVALANGLQKKEALVAALNAGLIDVIVITDRMAEYILQKND,not soluble
2,MRAPLSTYRRPQRTDFVTPTGGPFFAKQDKALNTIDLKMAHDLKLRGYRVKVAVVDEGVRSDHPLLNVEKKYGGDYMADGTRTYPDPKRQGRHGTSVALVLAGQDTDTYRGGVAPNADLYSANIGTRAGHVSDEAAFHAWNDLLGHGIKIFNNSFATEGPEGEQRVKEDRNEYHSAANKQNTYIGRLDRLVRDGALLIFAAGNGRPSGRAYSEVGSVGRTPRVEPHLQRGLIVVTAVDENGRLETWANRCGQAQQWCLAAPSTAYLPGLDKDNPDSIHVEQGTSLSAPLVTGAAVLVQDRFRWMDNDNLRTTLLTTAQDKGPYGVDPQYGWGVLDVGRAVQGPAQFAFGDFVARVTDTSTFGLEHHHHHH,not soluble
3,VAGDTTITIVGNLTADPELRFTPSGAAVANFTVASTPRIYDRQTGEWKDGEALFLRCNIWREAAENVAESLTRGARVIVSGRLKQRSFETREGEKRTVIEVEVDEIGPSLRYATAKVNKASRSGGFGSGSRPAPAQTSSASGDDPWGSAPASGSFGGGDDEPPF,soluble
4,MAHHHHHHMKYMPQRPCIGICQGCWTVQLGGVNQYIQIWRYENLKHRYDCRKQVEQDQEWLRTYVKPADDMMISKSNTLLRLVYREGNASTQSYKYLMQVSPHKEVELSGPSATLAATFQVIVGEEEGKYIHLVKGHKLDDVIPVTPTLGCSSKIMGPVRWSSTMNCLWR,not soluble
5,MSLNFDFAENDFRPLAARMRPRTLDEYCGQQHLIGQGKPLRRAIESGHAHSMILWGPPGTGKTTLAEIIAYRINAEVERLSAVTSGVKDIREAIERAKRNRLADRQTILFVDEVHRFNKSQQDAFLPHIEDGTIIFIGATTENPSFELNNALLSRTRVYILKSLTTADVQRVLQQAVADEERGLGKARLNLQANLLHLLAEYVNGDARLALNCLELMADMAEEDENGKKIDRTLLTEVLGERQARFDKGGDRFYDLISAVHKSIRGSAPDAALYWYARIITAGGDPLYVARRLLAIASEDIGNADPRAMQVALSAWDCFTRVGAAEGERAIAQAIVYLAVAPKSNAVYQAFNAAKALAKQAPDYDVPRHLTNAPTQLLKELGNHAEYRYAHDEPNAYAAGENYFPEPLKDTRFYFPGARGMEIKIKEKLDWLRNLDQQSENIREGHHHHHH,not soluble
6,MADNLSDTLKKLKITAVDKTEDSLEGCLDCLLQALAQNNTETSEKIQASGILQLFATLLTPQSSCKAKVANIIAEVAKNEFMRIPCVDAGLISPLVQLLNSKDQEVLLQTGRALGNICYDSHEGRSAVDQAGGAQIVIDHLRSLCSITDPANEKLLTVFCGMLMNYSNENDSLQAQLINMGVIPTLVKLLGIHCQNAALTEMCLVAFGNLAELESSKEQFASTNIAEELVKLFKKQIEHDKREMIFEVLAPLAENDAIKLQLVEAGLVECLLEIVQQKVDSDKEDDITELKTGSDLMVLLLLGDESMQKLFEGGKGSVFQRVLSWIPSNNHQLQLAGALAIANFARNDANCIHMVDNGIVEKLMDLLDRHVEDGNVTVQHAALSALRNLAIPVINKAKMLSAGVTEAVLKFLKSEMPPVQFKLLGTLRMLIDAQEAAEQLGKNVKLVERLVEWCEAKDHAGVMGESNRLLSALIRHSKSKDVIKTIVQSGGIKHLVTMATSEHVIMQNEALVALALIAALELGTAEKDLESAKLVQILHRLLADERSAPEIKYNSMVLICALMGSECLHKEVQDLAFLDVVSKLRSHENKSVAQQASLTEQRLTVES,not soluble
7,KKTSGNQDEILVIRKGWLTINNIGIMKGGSKEYWFVLTAENLSWYKDDEEKEKKYMLSVDNLKLRDVEKGFMSSKHIFALFNTEQRNVYKDYRQLELACETQEEVDSWKASFLRAGVYPERV,soluble
8,QGRYTTDDGYIFNASDIIEDTGDAYIVPHGDHYHYIPKNELSASELAAAEAFLSG,soluble
9,MAHHHHHHMKPTPLRGQPGLSRNGEGHNDRATSAASHLWARGARTQSPRRGQKESIATRTAVNNGGGPTHAATTRRSAQASRRTSTRYFKLPDAIAEKGEGAFSPTEPDCGATVLRHPASGRRHEEGEQGGSGIVCDVGVGAEKVAGGRLTTLRRTRGQPNKEASRTAFSMATDDVAPPTRLQYARMPRPMSQMNRTPLGVAVLGLQKIAARSETKRTRPLKRKRRINLPAAGPNGSDGLHSDLRG,soluble
10,MGAVVVKDLRKRIGKKEILKGISFEIEEGEIFGLIGPNGAGKTTTLRIISTLIKPSSGIVTVFGKNVVEEPHEVRKLISYLPEEAGAYRNMQGIEYLRFVAGFYASSSSEIEEMVERATEIAGLGEKIKDRVSTYSKGMVRKLLIARALMVNPRLAILDEPTSGLDVLNAREVRKILKQASQEGLTILVSSHNMLEVEFLCDRIALIHNGTIVETGTVEELKERYKAQNIEEVFEEVVKCSENF,not soluble
11,MRPGLSAKRLVVKVGSAVLTGERGLDLEAMAEIARQVAALREEGREVVLVSSGAVAAGMRRLGLKERPKDMPKKQALAALGQPLLMAFWQEAFAPFGLPVAQVLLTAEDLSSRSRYLNAKATLRALLDLGAIPVINENDTVAFEEIRFGDNDQLSARVAALVEAGLLALLSDVDALYEEDPKKNPQARPIPEVESVEAVLAHAGEENPLGSGGMKSKLLAARIAGRVGIPTLLLPGKRPGVLLQALSGAPLGTYFHARRRYRGEKAWLFGLLRPKGELVLDRGAVRALKERGASLLPAGVKEVRGRFSRGEAVRLLSEEGEEVGVGLANYASEEIARIKGRRSAEIEAVLGYRYTEEVVHRDHLALKEEA,soluble
12,MNLDELLLLIEKNRSQLSKIDDDFYEKLRERIAELEEMKSSAGESDFFRYEDEIRTLKRLQRKIFELRTGKIISAAWAEVCGQQFSSDVENMCSDERVFFKKLIDIIKEFKRSILEGGKRKISDRVLVRIKKDVEIQGADGKTYKLRREDVVTLPQLNADALIKGGIAERIEVKEDEVSQEGLEHHHHHH,soluble
13,MSLAELQMLLEEEIPSGKRALIESYQNLTRVADYCENNYIQATDKRKALEETKAYTTQSLASVAYQINALANNVLQLLDIQASQLRRMESSINHISQTVDIHKEKVARREIGILTTNKNTSRTHKIIAPANMERPVRYIRKPIDYTVLDDVGHGVKWLKAKHGNNQPARTGTLSRTNPPTQKEGHHHHHH,not soluble
14,MHEFTDTRDDSTLDEIWLVEHYPVFTQGQAGKAEHILMPGDIPVIQSDRGGQVTYHGPGQQVMYVLLNLKRRKLGVRELVTLLEQTVVNTLAELGIEAHPRADAPGVYVGEKKICSLGLRIRRGCSFHGLALNVNMDLSPFLRINPCGYAGMEMAKISQWKPEATTNNIAPRLLENILALLNNPDFEYITALEHHHHHH,not soluble
15,GPGSMIFGSEPPLYLKPVGRRGLRRHEADVLQHYPGYSHPVVQLRGSEGYIGDSHRLHPRLTAAEELRHERELGAERRQRVVEVRRRRHCEREANLAQRREDEFQREQRHKAQLAGLCIRNEPGDGRDTITQQYRTEDARRHYEYKHELEKHRYFARQQRLREKTHPHGYNILTGEALPSTVVPPKPSIPSDTQLFAVQNGD,not soluble
16,MGSDKIHHHHHHMNTRSDVSKLIAQRKPRHALPRALYSNLAVYQQDLQQLWHKDWIFAGHTFELEKSGQYLSLQIGDYPVAVVRGADGQVRAFHNSCRHRGSKVCPEAKGKVAKLVCPYHKWTFELDGRLLFAGNMGDDFDKSQYNLKPVHCEIVNTYIYVCVAEAAPDFSAFREAVTPFLMPHNLEDCKVAFESNLIEKGNWKLVFENNRECYHCDGTHPELMNSFVENLSVAGVGGSDDPQLTAHWDRCEAAGLPSRLVMDNDGRFRITRIPLSSGAVSYTMDGKPAVAVRLDASGEADIGALLYFNYPSTWNHFLGDHALSFRVLPLGPNETLVTTKWIVKKTAVEGLDYDLDRLTKVWLATNDQDRTLVEGAQVGVNSPAYEPGPFSSKAENGVCQFDDWYCEIMLDRLGDDRAQASIKLKSVG,not soluble
17,MAHHHHHHMSTSRPAAVLHAASDDEKEDDPMAVLWQHERHVLVLTRAGKPIFSQHGHEEQLSPLCALLQVLLCIHEDKGGGDEQSRGPSQPAPRSDGTASSAAVKDELHQVVYYRSKSASGQACHQGDVNAQVQALTLFFYVQGDLIYLMSVRSVAPSLPAGAVEMSNAEGECEPPPLASYCLAQLRHVHHCILLVLPTVNTLLTRSPGLDVMAMYTSADRAALRELIESYQTELTYAVGAVATLALSVEKRRVVERALLCCYRSCADAAVGPPAHQLFSFLYFKNYLVAAVGPPETYAADPKVSVSAPLALGPDTALCGCLHVDDALLLYRYARSLVSRQLGEAWVPVCLPRFNSTGYLWCYAVNFTRYARELRKQQGKTEWPKVWEEHTELDIMLLHVSASQDDFAALSRSTRRFAQILCAPAVEDNFYYRLEEELYYRTPAPLTELLPSSHTSVSTCSSRDLSGYTDGVPVVVWRGHSRQ,not soluble
18,MSLKITIRDIAKQAEVSISTVSFVINGKGEKMAISPAVIKKVQDVAQKLQYKPSMIASSLRTGKTRSIGLIVEDISNQFFADLARVIEDEAKNINYRVFYCSTGDDNDRSEELVQSLLQANVEGFIITPTRNLEKTISQLLKLQKPVVLIDRYFANQKVSHVVMDNYEGSYSAVKFLISKGRKNIAVVNNKSGMIQMKLREKGYVEALKEEGIYNEKYTLLLDYHSSEKTRIEEIINFFNQNKEIDAVLFCANYMGLAGLQAFRTLNYKIPNDISVISFDDHDSFKLHTPTISVIAQPIEDIAVESIQLLMSQMTNFEDFKIEKVLKKGTLIIRESVEGHHHHHH,soluble
19,MAHHHHHHMEDVGGKANCQIEPERKEAVIDTSNWPLLLKNYDKLNVRSSHFTPLPMGNSPYSRNLEEYLKYGIINLDKPSNPSSHEVVSWIRKILRCEKTGHSGTLDPKVTGVLLVCLNRATRLVKSQQESGKEYVCVCKFHSKPKSLEEVKLVLNNFHGAIFQRPPLICAVKRQLRVRTIYDSKLLDFDDANNVCVFWVKCQAGTYIRTLCEHIGLLLGVGAHMQELRRVKSGNMTEYDNMCTLHDILDAQHVYDTTGDESYLRKIITPLEKLLINFPRIVIKDSAVNAICYGAKLTIPGVLRFDNNIDVNSEVVLMTTKGEAVALAIAQMTSSVIATVDHGVVSLTKRVIMDRDTYDVKWGYGTRSMEKKKLILAGLLDKYGKPNEKTPLSWIKSEGYVPKLVGDTAIYTLNTDDGNNNEVPENGKNVVGENNNPVGGSSAFNLSEGENKKKKDGEGAEENDNNAGEQSDSGVVKKKRKKN,not soluble
20,MSLKDMIDSIEQFAQTQADFPVYDCLGERRTYGQLKRDSDSIAAFIDSLALLAKSPVLVFGAQTYDMLATFVALTKSGHAYIPVDVHSAPERILAIIEIAKPSLIIAIEEFPLTIEGISLVSLSEIESAKLAEMPYERTHSVKGDDNYYIIFTSGTTGQPKGVQISHDNLLSFTNWMIEDAAFDVPKQPQMLAQPPYSFDLSVMYWAPTLALGGTLFALPKELVADFKQLFTTIAQLPVGIWTSTPSFADMAMLSDDFCQAKMPALTHFYFDGEELTVSTARKLFERFPSAKIINAYGPTEATVALSAIEITREMVDNYTRLPIGYPKPDSPTYIIDEDGKELSSGEQGEIIVTGPAVSKGYLNNPEKTAEAFFTFKGQPAYHTGDIGSLTEDNILLYGGRLDFQIKYAGYRIELEDVSQQLNQSPMVASAVAVPRYNKEHKVQNLLAYIVVKDGVKERFDRELELTKAIKASVKDHMMSYMMPSKFLYRDSLPLTPNGKIDIKTLINEVNNREGHHHHHH,soluble
